Source: US20240018502

T1: quenched fluorescence peptidic substrate containing SKGR/SL (P4-P2' of the PAR-2 activation cleavage site, Ser 33 to Leu 38)
T1 chain: SKGRSL


Tests used:
[1] = target: cynomolgus monkey complement protein C3 (endogenous, in vitreous humor)
[2] = target: human complement protein C3
[3] = target: complement protein C3 of cynomolgus monkey plasma
[4] = target: T1, quenched fluorescence peptidic …

| Protein | C3 levels in vitreous humor by ELISA after one intravitreal dose of 125 ug [1] | ED50 of cleavage of human C3 [2] | anti-C3 activity, fold increase owed to D60bT (against the variant with this residue reverted to wild type) [2] | anti-C3 activity, fold increase owed to D96K (against the variant with this residue reverted to wild type) [2] | anti-C3 activity, fold increase owed to F60eS (against the variant with this residue reverted to wild type) [2] | anti-C3 activity, fold increase owed to F97G (against the variant with this residue reverted to wild type) [2] | anti-C3 activity, fold increase owed to F99L (against the variant with this residue reverted to wild type) [2] | anti-C3 activity, fold increase owed to G151H (against the variant with this residue reverted to wild type) [2] | anti-C3 activity, fold increase owed to I41S (against the variant with this residue reverted to wild type) [2] | anti-C3 activity, fold increase owed to Q38H (against the variant with this residue reverted to wild type) [2] | anti-C3 activity, fold increase owed to Q175L (against the variant with this residue reverted to wild type) [2] | anti-C3 activity, fold increase owed to T98P (against the variant with this residue reverted to wild type) [2] | anti-C3 activity, fold increase owed to Y60gW (against the variant with this residue reverted to wild type) [2] | anti-C3 activity, fold increase owed to the insertion 97aV (against the variant without the insertion) [2] | reduction of hemolytic activity (C3H50) after preincubation of C3 with the variant [2] | ED50 80% cynomolgus plasma (nM), C3 cleavage, C3 ELISA [3] | ED50 80% human plasma (60 min, nM), C3 cleavage [2] | SKGR/SL kcat/Km [4] |
| --- | --- | --- | --- | --- | --- | --- | --- | --- | --- | --- | --- | --- | --- | --- | --- | --- | --- | --- |
| Modified MTSP-1 protease domain Q38H/I41S/D60bT/F60eS/Y60gW/D96K/F97G/ins97aV/T98P/F99L/C122S/G151H/Q175L/Q192D (protein) VVGGTDADEGEWPWQVSLHALGHGHSCGASLISPNWLVSAAHCYIDTRGSRWSDPTQWTAFLGLHDQSQRSAPGVQERRLKRIISHPFFNKGVPLDYDIALLELEKPAEYSSMVRPISLPDASHVFPAGKAIWVTGWGHTQYGGTHALILQKGEIRVINQTTCENLLPQLITPRMMCVGFLSGGVDSCDGDSGGPLSSVEADGRIFQAGVVSWGDGCAQRNKPGVYTRLPLFRDWIKENTGV | C3 was undetectable in the variant-treated eye 1, 2, 6, and 7 days after the single injection of the anti-C3 MTSP polypeptide | cleaves human C3 in the assay described herein with an ED50 of 2 nM | D60bT-This mutation increases anti-C3 activity by approximately 2.8-fold | D96K-This mutation increases anti-C3 activity by approximately 2.6-fold | F60eS-This mutation increases anti-C3 activity by approximately 1.9-fold | F97G-This mutation increases anti-C3 activity by approximately 4.3-fold and increases substrate specificity | F99L: This mutation increases anti-C3 activity by approximately 3.9-fold | G151H: This mutation increases anti-C3 activity by approximately 1.2-fold | I41S-This mutation increases anti-C3 activity by approximately 44.6-fold | Q38H-This mutation increases C3 activity by approximately 3.7-fold | Q175L: This mutation increases anti-C3 activity by approximately 4.3-fold | T98P: This mutation ... increases anti-C3 activity by approximately 2.2-fold | Y60gW-This mutation increases the enzyme's substrate specificity and increases anti-C3 activity by approximately 4.8-fold | Insert 97aV: This mutation ... increases anti-C3 activity by approximately 1.7-fold | reduces the hemolytic activity of the serum by approximately 80% | – | – | – |
| Q38H/I41S/D60bT/F60eS/Y60gW/D96K/F97D/ins97aA/T98P/F99L/C122S/G151N/Q175L/Q192D (protein) VVGGTDADEGEWPWQVSLHALGHGHSCGASLISPNWLVSAAHCYIDTRGSRWSDPTQWTAFLGLHDQSQRSAPGVQERRLKRIISHPFFNKDAPLDYDIALLELEKPAEYSSMVRPISLPDASHVFPAGKAIWVTGWGHTQYGGTNALILQKGEIRVINQTTCENLLPQLITPRMMCVGFLSGGVDSCDGDSGGPLSSVEADGRIFQAGVVSWGDGCAQRNKPGVYTRLPLFRDWIKENTGV | – | – | – | – | – | – | – | – | – | – | – | – | – | – | – | 37 nM | 44 nM | 2060 M⁻¹ s⁻¹ |
| Q38H/I41S/D60bT/F60eS/Y60gW/D96V/F97G/ins97aV/T98P/F99L/C122S/G151H/Q175L/Q192D (protein) VVGGTDADEGEWPWQVSLHALGHGHSCGASLISPNWLVSAAHCYIDTRGSRWSDPTQWTAFLGLHDQSQRSAPGVQERRLKRIISHPFFNVGVPLDYDIALLELEKPAEYSSMVRPISLPDASHVFPAGKAIWVTGWGHTQYGGTHALILQKGEIRVINQTTCENLLPQLITPRMMCVGFLSGGVDSCDGDSGGPLSSVEADGRIFQAGVVSWGDGCAQRNKPGVYTRLPLFRDWIKENTGV | – | – | – | – | – | – | – | – | – | – | – | – | – | – | – | 103 nM | 27 nM | 4990 M⁻¹ s⁻¹ |
